{
  "source": "the DeepSol protein solubility set",
  "data": [
    {"test": "soluble on expression in E. coli; label from the status in PepcDB or PDB records", "values": [
      {"sequence": "MGSDKIHHHHHHMSEISAIWERIEAWHAANDQTENLNPGATAEALAQAEKDMGLTFPPEMRESLLRHDGSVDDSWPTGELLSLERMADERKVWMDLLQDGTFDGNASHNESSEALQPGWWNPAWIPLDADGGGNGAVIDLAPGPQGTVGQVIDMDHEVGPSGPKYVSLAAYLEAMLERLSEAEE", "soluble on expression in E. coli": "not soluble"},
      {"sequence": "MSLMSSKPIYKRVLLKASGEALMGDQGFGIDVAVADRIASDIAEARAMGVEVGVVVGGGNIFRGVAVASKGGDRVTGDHMGMLATVINALALATSLRKLSIDTVVLSAIAMPEICESFSQRAALHHLAQGRVVIFAGGTGNPFFTTDSAAALRAAEMGAEAIFKGTQVDGIYSADPKKDPTATRFDELTHSEVLGKGLAVMDIAAVALARENHIPIIVFSIHEKGGFAQILTGGGRKTIVHDKEGHHHHHH", "soluble on expression in E. coli": "soluble"},
      {"sequence": "MRVEPLPGVPAATVDTDGERLLAVADYHAGIEAGLRYEGVELQSAAEARRERLLTCLRRARADRLVVIGDLGHAIGDPFADERAELETLFDALDVPVTLVKGNHD", "soluble on expression in E. coli": "not soluble"},
      {"sequence": "MGSDKIHHHHHHMTYKPKYDNLMENPKIRRWFENLKAKSILTATVYRRTLGYYCELEKTTPEQLLTDMEKLEFRDNFLDFVRRLEKEGKAGSYIVRYKKVLRSWAKFNGIDIKLDVNIANENESPTLDNERVPSKEELSRLLRKATSRGRVSIPIMAFSGFRPETLGNYEGTDGLRLGDIKELKISDEIEFTKIPATIMVKTRLSKARNQYFSFIGEEGITYIKEYLEERKKNGEELTYESPLLQFDVRGTKKNDFMRTMLVTRDIREAITTAGLKMRPYVLRAYFSTALDIAESKGLISHPWRQFIMGHKGDIEARYSTNKRLPPDMIEEMRESYRKCLKFLETRISDVSEDNAKLFLQQQLLSAVGYKQEEIDKLDLSSVSNEDFQQLLRDKVAGAMSDNGAKQKVIPVNEIEQYISDGYDFEAVLPNGKAVMRLRF", "soluble on expression in E. coli": "not soluble"},
      {"sequence": "MGSDKIHHHHHHMAKAFASQGDMSEKKISFTEVGEGLYAFTAEGDPNSGVIIGDDSVMVVEAQATPRLAQKVIDCIREVTDKPISHVVLTHYHAVRVLGASAFGAGQVIMSDTARSMVVERGQEDWDSEFQRFPRLFEGHESIPGLTWPTTTFSDSMTVYLGKRRVDIMHLGRAHTAGDAVIHVPDQNVMFTGDIVEYHSACYCGDGHFNDWGNTLDNIAWFDVDAIAPGRGDALVGKEMVNAAIENTRDFVQSTYRPAARVAARGGSLKEAWDAVRAECDPKFADYAIYEHCLPFNVARAYDEARGIDTPRIWTAQRDLEMWEALQG", "soluble on expression in E. coli": "not soluble"},
      {"sequence": "HGPASRLLHRHIREQLKDLKEVSHESLVVGAVENAFQLMDEQMARERRGHQVEGGCCALVVIYLLGKVYVANAGDSRAIIVRNGEIIPMSREFTPETERQRLQLLGFLKPELLGSEFTHLEFPRRVLPKELGQRMLYRDQNMTGWAYKKIELEDLRFPLVCGEGKKARVMATIGVTRGLGDHSLKVCSSTLPIKPFLSCFPEVRVYDLTQYEHCPDDVLVLGTDGLWDVTTDCEVAATVDRVLSAYEPNDHSRYTALAQALVLGARGTPRDRGWRLPNNKLGSGDDISVFVIPLGGPGSYSVRASSPSPL", "soluble on expression in E. coli": "not soluble"},
      {"sequence": "TRMAPVIMVPGSSASQNRFDSLITELGKETPKKHSVLKLTVQTDGTIKYSGSIAANDNEPFIVIGFANNRDGKANIDKQAVWLNTAFKALVKTYHFNHFYALGHSNGGLIWTLFLERYLKESPKVHIDRLMTIASPYNMESTSTTAKTSMFKELYRYRTGLPESLTVYSIAGTENYTSDGTVPYNSVNYGKYIFQDQVKHFTEITVTGANTAHSDLPQNKQIVSLIRQYLLAETMPDK", "soluble on expression in E. coli": "not soluble"},
      {"sequence": "MSLALIVHKYGGTSVGSPERIKNVAKRVAKARAEGHDIVVVVSAMSGETNRLVALAHEMQEHPDPRELDVVLATGEQVTIGLLAMALKDIGVDAKSYTGWQVALKTDTAHTKARIESIDDEKMRADLTAGKVVIVAGFQGISSEGDISTLGRGGSDTSAVALAAALKADECQIYTDVDGVYTTDPRVVPEARRMDTVTFEEMIELASLGSKVLQIRSVEFAGKYKVRLRVLSSLQDGGNGTLITFEEDDNMERAAVTGIAFDKNQARINVRGVPDKPGVAYQILGAVADANIEVDMIIQNVGSEGTTDFSFTVPRGDYKQTLEILSERQDSIGAASIDGDDTVCKVSAVGLGMRSHVGVAAKIFRTLAEEGINIQMISTSEIKVSVLIDEKYMELATRVLHKAFNLGEGHHHHHH", "soluble on expression in E. coli": "soluble"},
      {"sequence": "MAHHHHHHMQSQQHHYTASPTASPALSRAGVSSTPVLILDLGSRTIKSGLHTATTPHLTPALVGTPKYPRCLPQVSSSFNQSSSISTSCFVVGSDAASRRGVLRLSRPIQHGGVIMDWVGTRPLLRQSIQNALVPPSSSLAVRQPLEEGEDVIYSLVESPYASRPQRARLAELLFEGPDQEAVMSDSGKQQRVGPRAAGVFCGVGPLLALYATGQTTGVVVDVGDGAVSTAAAADGYVLPQCLQREADGATGAAVTSYLTRLLYQSGVLGPAAATAAFRRSAPPSLLGSATNHLSSGAGAGTQQERELVYALKEACCSVSATPLFSTKSSLAAADASTAATPSLAELNSALIAAAQRTQHSGPGGSGAAHASTPFSHPFTLPDGSFLEVGGAEAAQASEVLFYPALMGSEGRGVVDVVLDAVAAAPAELQPQLLGNVVVTGGVTCSAGFGYRFFNEMQQRIRGCAASSTNGSSNQRICVSAPEQRAYAAWMGASYVAQISSFASSMVVTRAAYEEEGEAALARRVLT", "soluble on expression in E. coli": "not soluble"},
      {"sequence": "MFLGTYTPKLDDKGRLTLPAKFRDALAGGLMVTKSQDHSLAVYPRAAFEQLARRASKAPRSNPEARAFLRNLAAGTDEQHPDSQGRITLSADHRRYASLSKDCVVIGAVDYLEIWDAQAWQNYQQIHEENFSAASDEALGDIF", "soluble on expression in E. coli": "not soluble"},
      {"sequence": "MGSDKIHHHHHHMKKFIVEPEFWELFPETKIGIVLAKNIDNSMESSAEIKKNLDEANENAEQFLEAAVFSENPVVSVWRKAYQKFKTKKGARSSIENLLKRVDKGKAVGSINPLVDIYNSISLNYGLPAGGEDIDTFAGNLRLTKAVGGEHFLALGDDEADNALPGEICYLDDEGAVCRSWNWRDGQRTMLTEQTKNAFLIIESVDPERGEVLDAATQKLAELSEKYLGGTAQVLLVTKENPEISLD", "soluble on expression in E. coli": "not soluble"},
      {"sequence": "MGSDKIHHHHHHMDIAMVYSDRLLSPQIPPSRKLRVLKEVEIRLIEGEEQEVEELIMQIHSEEYFSRIRSHPFFENAVENVKCILTGLKALKDYDAVIVPVTTAGHLAEQSRMRGYCLLNGLAIAVKAAESYGRIAVIETDAHHGKASIVSEERATFFCIGRRECEISEDLRCVLGRRMGKDYVKSFEELVERVKEYDPNLVIWYLGLDLDSREYAEMPFGREEWEKLVKNFMKMAEGRKSLIMLALGLRDDVLKDIVGLFAGW", "soluble on expression in E. coli": "not soluble"},
      {"sequence": "MGSDKIHHHHHHMRAHCRHSLWRKENMMESKIYPHEVSLETIDSMPDEYRDTLIHQLLANGEGELSAGDTYIDSFYPLAPDADERYICAQFAAEEVDHFRRFSRLLAELEVDTSHMLSQKKAERRYFAAESMTTDFRSWEERAAFSFLCELEGHYQIKEMVSSSYLPLRAEAEAVLKEEARHFSHGALLMRRAAKDGDARARAQDALDRLYPMAMDMFGRSDSHRSDAAVSWGLRQYTNGQLRDRYRDDVRGHIQRLGYEVPDETARRKYF", "soluble on expression in E. coli": "not soluble"},
      {"sequence": "MQIKAGLIWMNGAFVPQEEAKTSVLSHALHYGTSVFEGIRAYETAKGPAIFRLKEHVKRFYNSAKVLRMEIPFAPEELEEAIKEVVRRNGYRSCYIRPLAWMGAKALGVNPLPNNPAEVMVAAWEWGAYLGEEAVRKGARLITSSWARFPANVMPGKAKVGGNYVNSALAKMEAVAAGADEALLLDEEGYVAEGSGENLFFVRDGVIYALEHSVNLEGITRDSVIRIAKDLGYEVQVVRATRDQLYMADEVFMTGTAAEVTPVSMIDWRPIGKGTAGPVALRLREVYLEAVTGRRPEYEGWLTYVNGQ", "soluble on expression in E. coli": "soluble"},
      {"sequence": "MKIAIIGAGIGGLTAAALLQEQGHTIKVFEKNESVKEIGAGIGIGDNVLKKLGNHDLAKGIKNAGQILSTMTVLDDKDRLLTTVKLKSNTLNVTLPRQTLIDIIKSYVKDDVIFTNHEVTHIDNETDKVTIHFAEQESEAFDLCIGADGIHSKVRQSVNADSKVLYQGYTCFRGLIDDIDLKHPDCAKEYWGRKGRVGIVPLLNNQAYWFITINSKENNHKYSSFGKPHLQAYFNHYPNEVREILDKQSETGILLHNIYDLKPLKSFVYGRTILLGDAAHATTPNMGQGAGQAMEDAIVLVNCFNAYDFEKALQRYDKIRVKHTAKVIKRSRKIGKIAQYRSRLFVAVRNRIMKMMPNALAAGQTKFLYKSKEKLEHHHHHH", "soluble on expression in E. coli": "soluble"},
      {"sequence": "RLPKKHYTDSLDYALFKELIRVSVASNNKQILDYYEHHCHKKNPATACQYGYVLALLNNNNFQKAAEKLNPLLLQDNSNLNFQIAMAQAELGLSQYQSALSRLAELQNNFPDNYAALMAYAQGLLTANQPQKATAVLLKGSRQYKEDLPLCRELARAQA", "soluble on expression in E. coli": "not soluble"},
      {"sequence": "MGSDKIHHHHHHMETDRLIIMDKLRAMRMFVRVVDAGSFSRVANELNVTTSMISKEIGRLEEDLGVRLLHRSTRGQQLTSIGEGYLKRCRELLVQVDDADAYVQHMQENPRGKLRINAPMALGITDLSQLFSAYMKQYPDVELDIQLGDESLDLIEHGFDLGFRASSQMLDSNYVGKPLVSFTYKVCASASYLESHPPIREVEDLAAHNCFVYSYFKSGNFWPLAQGITVAGSLKVNSTLFMKQVIEDGLGIGFLPSFVAREGIEQGKLVEVLPEVGRPDLTLYALYPNRLFTPPKLLSCIEFLQSWFLSRNLDEGWLQ", "soluble on expression in E. coli": "not soluble"},
      {"sequence": "MGSDKIHHHHHHMSRAHVDHRDLVRFAEERVNLPKEKADEFRAQARRLREKLEGYLAEHPDFALKKMLLSGSLAKGTALRSLNDIDVAVYISGSDAPHDLQALLNYLAEKLRKAFPNFSPEQVQPQTYSVTVNFRGTGLNVDVVPVLYAGLPDWRGNLISQDDGSFLETSIPLHLECARKRKQAQPTHFAQVVRLIKYWARRMKQEHDGFRFKSFMIEMILAKLTDNGTDLSDYPEALQSFFTYVAESNLSERIVFEDYYQASTVAPSADRVQIIDPINASNNVARLYTAQNAAAIVDAALDAGDAIDAALKAPTKELTVHYWQKVFGSSFQG", "soluble on expression in E. coli": "not soluble"},
      {"sequence": "MGSDKIHHHHHHMADRPHAEEGQTAGPAGQPGVAAWLDNQPPKWRPVASAIGSLELMTFFQFVLAAVLMSALPAHGADRIIYLTFDDGPLNGTSNILDVLEAEQVPATLFMVGMHAEAGASNKALVRRAKAMPLVTIGNHSYTHAYNHYRHFYGDTEGVVADMLMANVVLGLKPAVHARLPGRDVFRLPSMSKDDNSLGPAQAGREDPDYEFVAASGFYLYGWDHEWVHKDSGEPVQSVDHLVSEIDHLFGYGHFAKPGKLILLMHDEMFQDGFDGKTKLTDLITALKLRHYAFGTIPNYDH", "soluble on expression in E. coli": "not soluble"},
      {"sequence": "MGSDKIHHHHHHMATENKIKYFENREDWRKWLMDNFETEDEIWFVFPLKSSGEKSIAYNDAVEEALCFEWIDSTIKPLDKEHRIQRFTPRKPKSTYSQANKERLKWLLANKMIHPEFEDKIRTVLSDPFIFPNDIMDRLKEDEIAWRNYRHFSDAYKRIRIAYIEAARKRPEEFEKRLNNFICKVKENKMITGFGGIEKYY", "soluble on expression in E. coli": "not soluble"},
      {"sequence": "MAHHHHHHMGTLEAQTQGPGSMAIDPNSIGAVTEPMLFEWTDRDTLLYAIGVGAGTGDLAFTTENSHGIDQQVLPTYAVICCPAFGAAAKVGTFNPAALLHGSQGIRLHAPLPAAGKLSVVTEVADIQDKGEGKNAIVVLRGRGCDPESGSLVAETLTTLVLRGQGGFGGARGERPAAPEFPDRHPDARIDMPTREDQALIYRLSGDRNPLHSDPWFATQLAGFPKPILHGLCTYGVAGRALVAELGGGVAANITSIAARFTKPVFPGETLSTVIWRTEPGRAVFRTEVAGSDGAEARVVLDDGAVEYVAG", "soluble on expression in E. coli": "soluble"}
    ]}
  ]
}
